Numbering of substitutions follows the chain as printed. Where two headings read alike, the source gives them in different places.

Here are results for 3 molecules from US20080057063A1 (published 2008).

Assay [1] has as its target T1, human αVβ6 integrin on cells (human, UniProt P06756 31-1048; P18564 22-788). The assay can be described thus: cell-based or functional assay.
In assay [2] the target is T1, human αVβ6 integrin on cells. The experiment in a line: cell-based or functional assay. This is another data set of the same source.
Assay [3] has the same target. The assay can be described thus: FACS titration on K562 cells expressing human αVβ6; 95% CI ±22.7 pM.
Assay [4] deals with T2, soluble αVβ6 (human, UniProt P06756 31-992; P18564 22-709).
T2 construct: extracellular domain; also called soluble αVβ6 protein; soluble antigen
The experiment in a line: Biacore, mAb captured on anti-human IgG, soluble αVβ6 injected, 1:1 fit. For orientation: In SPR one partner is held on a chip, and binding of the other changes the refractive index at the surface.

Assay [5] concerns the target T1, human αVβ6 integrin on cells. The experiment in a line: cell-based or functional assay. The source holds these as a separate data set.
The target of assay [6] is T3, cynomolgus αVβ6 on cells (cynomolgus, UniProt A0A2K5WCD3 31-1048; A0A2K5TZ36 22-787).
T3 construct: whole, on cells; also called macaque αVβ6; Mac AVB6
The experiment in a line: FACS, HEK-293 transfected with cynomolgus αV and β6. (In general: In flow cytometry, cells or beads pass a laser one at a time.)

The target in assay [7] is T4, α5β1 integrin (on K562 cells) (UniProt P08648 42-1049; P05556 21-798, limits assumed). The experiment in a line: cell-based or functional assay.
Assay [8] has as its target T4, α5β1 integrin (on K562 cells). The assay can be described thus: cell-based or functional assay. The source holds these as a separate data set.
Assay [9] concerns the target T5, α4β1 integrin (on J6.77 cells) (UniProt P13612 34-1032; P05556 21-798, limits assumed). The experiment in a line: cell-based or functional assay.
Assay [10] concerns the target T1, human αVβ6 integrin on cells. The assay can be described thus: FMAT, HEK 293 cells overexpressing αVβ6, supernatant.
For assay [11], the target named is T5, α4β1 integrin (on J6.77 cells). The assay can be described thus: cell-based or functional assay. This is another data set of the same source.
Assay [12] deals with T1, human αVβ6 integrin on cells. The experiment in a line: FACS, 293T-αVβ6 cells, antibody at 1.25 ug/ml.
Assay [13] shares this target. The assay can be described thus: FACS, 293T-αVβ6 cells, antibody at 5 ug/ml.
Assay [14] has the same target. The assay can be described thus: FACS, 293T-αVβ6 cells, antibody at 20 ug/ml.
Assay [15] has as its target T6, mouse αV (HEK-293 cells transfected with mouse αV alone) (mouse, UniProt P43406 31-1044).
T6 construct: whole, on cells; Single chain transfected into HEK-293 cells; also called Mouse alphaV
The assay can be described thus: FACS, HEK-293 transfected with mouse αV.

Assay [16] deals with T7, human αV on parental A375M cells, which express αVβ3 and αVβ5, but not αVβ6 (human, UniProt P06756 31-1048).
T7 construct: whole, on cells; Two heterodimers (αVβ3, αVβ5) on one cell line; also called αVβ3 or αVβ5 integrins
The assay can be described thus: FACS, parental A375M cells (αVβ3, αVβ5).

The target in assay [17] is T7, human αV on parental A375M cells, which …. The experiment in a line: cell-based or functional assay.

T4 sequence (P08648 42-1049 limits assumed, chain 1 of 2): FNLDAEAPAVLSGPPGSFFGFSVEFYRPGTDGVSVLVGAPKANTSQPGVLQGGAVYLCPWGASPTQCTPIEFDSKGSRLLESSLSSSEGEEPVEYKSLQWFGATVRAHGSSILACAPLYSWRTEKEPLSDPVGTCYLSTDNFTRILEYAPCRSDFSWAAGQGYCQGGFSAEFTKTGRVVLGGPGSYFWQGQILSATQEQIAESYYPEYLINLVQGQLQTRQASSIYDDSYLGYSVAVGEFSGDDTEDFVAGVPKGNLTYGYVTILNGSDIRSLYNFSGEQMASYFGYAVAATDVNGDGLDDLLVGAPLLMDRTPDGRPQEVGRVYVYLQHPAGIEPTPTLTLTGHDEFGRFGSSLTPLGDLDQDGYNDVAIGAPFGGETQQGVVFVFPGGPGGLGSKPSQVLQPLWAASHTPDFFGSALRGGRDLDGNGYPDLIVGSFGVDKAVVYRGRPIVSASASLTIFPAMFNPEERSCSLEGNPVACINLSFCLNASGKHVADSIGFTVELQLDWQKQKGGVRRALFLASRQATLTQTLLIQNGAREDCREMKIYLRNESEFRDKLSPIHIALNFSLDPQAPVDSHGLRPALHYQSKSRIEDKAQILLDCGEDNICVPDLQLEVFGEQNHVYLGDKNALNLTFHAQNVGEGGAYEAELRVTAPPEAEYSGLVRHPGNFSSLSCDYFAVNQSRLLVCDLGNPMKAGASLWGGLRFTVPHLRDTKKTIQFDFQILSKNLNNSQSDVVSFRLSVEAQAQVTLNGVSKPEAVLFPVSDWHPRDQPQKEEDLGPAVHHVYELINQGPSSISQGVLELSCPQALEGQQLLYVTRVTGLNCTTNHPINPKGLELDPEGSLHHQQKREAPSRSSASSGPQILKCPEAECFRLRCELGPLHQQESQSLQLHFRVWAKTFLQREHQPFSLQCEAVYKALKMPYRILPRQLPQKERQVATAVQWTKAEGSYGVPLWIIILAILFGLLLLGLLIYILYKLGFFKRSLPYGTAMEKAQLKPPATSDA
T4 sequence (P05556 21-798 limits assumed, chain 2 of 2): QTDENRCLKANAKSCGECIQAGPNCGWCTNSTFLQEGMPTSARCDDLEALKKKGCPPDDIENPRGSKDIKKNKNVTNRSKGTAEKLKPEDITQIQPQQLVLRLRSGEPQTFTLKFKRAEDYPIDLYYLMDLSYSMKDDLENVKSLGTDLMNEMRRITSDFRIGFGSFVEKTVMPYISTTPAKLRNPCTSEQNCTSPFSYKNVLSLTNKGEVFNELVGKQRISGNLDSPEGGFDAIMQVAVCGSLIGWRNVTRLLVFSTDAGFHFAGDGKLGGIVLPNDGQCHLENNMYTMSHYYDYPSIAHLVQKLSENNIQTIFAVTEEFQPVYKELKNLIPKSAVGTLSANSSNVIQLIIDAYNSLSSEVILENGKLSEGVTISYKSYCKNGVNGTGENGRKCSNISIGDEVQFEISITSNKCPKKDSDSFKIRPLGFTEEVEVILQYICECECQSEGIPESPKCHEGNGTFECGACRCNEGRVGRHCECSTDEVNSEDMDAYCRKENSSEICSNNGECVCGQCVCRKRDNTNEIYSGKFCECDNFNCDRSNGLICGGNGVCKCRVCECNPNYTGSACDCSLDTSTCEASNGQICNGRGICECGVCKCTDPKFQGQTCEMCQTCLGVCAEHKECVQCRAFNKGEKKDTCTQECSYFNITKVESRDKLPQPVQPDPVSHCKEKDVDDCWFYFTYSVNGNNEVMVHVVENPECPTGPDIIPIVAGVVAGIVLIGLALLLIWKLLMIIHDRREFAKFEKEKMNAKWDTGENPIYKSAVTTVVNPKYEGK
T7 sequence (P06756 31-1048 A375M): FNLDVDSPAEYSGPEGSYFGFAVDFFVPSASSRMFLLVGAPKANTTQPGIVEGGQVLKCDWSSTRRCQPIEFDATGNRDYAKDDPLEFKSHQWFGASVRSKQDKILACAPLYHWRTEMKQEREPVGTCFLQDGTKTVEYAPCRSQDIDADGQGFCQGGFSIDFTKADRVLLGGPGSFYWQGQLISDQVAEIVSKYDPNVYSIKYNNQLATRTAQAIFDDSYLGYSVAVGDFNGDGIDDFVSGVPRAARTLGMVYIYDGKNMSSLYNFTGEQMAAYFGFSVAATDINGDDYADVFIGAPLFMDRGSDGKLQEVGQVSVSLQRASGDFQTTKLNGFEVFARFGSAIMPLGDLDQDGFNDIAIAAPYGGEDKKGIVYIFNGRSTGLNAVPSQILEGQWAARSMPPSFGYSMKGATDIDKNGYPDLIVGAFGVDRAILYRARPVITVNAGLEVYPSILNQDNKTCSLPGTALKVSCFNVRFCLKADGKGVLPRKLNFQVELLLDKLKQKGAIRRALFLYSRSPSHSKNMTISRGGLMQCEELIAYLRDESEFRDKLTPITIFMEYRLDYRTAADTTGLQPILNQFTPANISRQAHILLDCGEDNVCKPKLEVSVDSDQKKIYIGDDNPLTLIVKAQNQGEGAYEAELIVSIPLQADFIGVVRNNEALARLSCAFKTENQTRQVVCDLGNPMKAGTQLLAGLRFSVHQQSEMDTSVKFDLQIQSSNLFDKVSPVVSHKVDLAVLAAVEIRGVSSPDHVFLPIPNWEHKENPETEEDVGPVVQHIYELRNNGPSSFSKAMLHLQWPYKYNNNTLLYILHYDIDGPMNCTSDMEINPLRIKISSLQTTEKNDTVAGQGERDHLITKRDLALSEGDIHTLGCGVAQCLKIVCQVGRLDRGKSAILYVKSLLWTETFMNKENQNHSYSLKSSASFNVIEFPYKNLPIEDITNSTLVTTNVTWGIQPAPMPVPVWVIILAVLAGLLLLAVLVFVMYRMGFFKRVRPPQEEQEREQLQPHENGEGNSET
T1 sequence (P06756 31-1048, chain 1 of 2): as the sequence (P06756 31-1048 A375M) above, with M345A counted along it
T1 sequence (P18564 22-788, chain 2 of 2): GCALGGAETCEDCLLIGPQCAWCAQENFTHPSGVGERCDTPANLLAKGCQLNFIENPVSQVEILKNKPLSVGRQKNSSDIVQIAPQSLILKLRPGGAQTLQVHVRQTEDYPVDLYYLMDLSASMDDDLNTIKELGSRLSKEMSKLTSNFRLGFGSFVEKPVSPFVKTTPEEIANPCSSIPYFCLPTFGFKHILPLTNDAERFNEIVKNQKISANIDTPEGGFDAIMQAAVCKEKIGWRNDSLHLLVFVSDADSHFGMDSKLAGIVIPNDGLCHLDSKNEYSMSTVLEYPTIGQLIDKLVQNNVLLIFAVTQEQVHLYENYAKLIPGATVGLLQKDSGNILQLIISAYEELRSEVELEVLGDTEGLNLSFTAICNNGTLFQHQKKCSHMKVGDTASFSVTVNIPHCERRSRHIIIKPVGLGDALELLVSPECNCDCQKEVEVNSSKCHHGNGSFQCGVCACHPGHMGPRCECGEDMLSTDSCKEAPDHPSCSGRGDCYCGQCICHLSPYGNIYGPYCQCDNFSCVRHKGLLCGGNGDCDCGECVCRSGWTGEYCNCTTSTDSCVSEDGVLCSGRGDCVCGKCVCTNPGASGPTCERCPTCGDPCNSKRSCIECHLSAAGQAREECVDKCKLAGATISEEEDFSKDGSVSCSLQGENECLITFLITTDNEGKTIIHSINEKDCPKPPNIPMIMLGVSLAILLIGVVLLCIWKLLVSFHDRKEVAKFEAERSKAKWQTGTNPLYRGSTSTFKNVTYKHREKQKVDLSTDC
T6 sequence (P43406 31-1044): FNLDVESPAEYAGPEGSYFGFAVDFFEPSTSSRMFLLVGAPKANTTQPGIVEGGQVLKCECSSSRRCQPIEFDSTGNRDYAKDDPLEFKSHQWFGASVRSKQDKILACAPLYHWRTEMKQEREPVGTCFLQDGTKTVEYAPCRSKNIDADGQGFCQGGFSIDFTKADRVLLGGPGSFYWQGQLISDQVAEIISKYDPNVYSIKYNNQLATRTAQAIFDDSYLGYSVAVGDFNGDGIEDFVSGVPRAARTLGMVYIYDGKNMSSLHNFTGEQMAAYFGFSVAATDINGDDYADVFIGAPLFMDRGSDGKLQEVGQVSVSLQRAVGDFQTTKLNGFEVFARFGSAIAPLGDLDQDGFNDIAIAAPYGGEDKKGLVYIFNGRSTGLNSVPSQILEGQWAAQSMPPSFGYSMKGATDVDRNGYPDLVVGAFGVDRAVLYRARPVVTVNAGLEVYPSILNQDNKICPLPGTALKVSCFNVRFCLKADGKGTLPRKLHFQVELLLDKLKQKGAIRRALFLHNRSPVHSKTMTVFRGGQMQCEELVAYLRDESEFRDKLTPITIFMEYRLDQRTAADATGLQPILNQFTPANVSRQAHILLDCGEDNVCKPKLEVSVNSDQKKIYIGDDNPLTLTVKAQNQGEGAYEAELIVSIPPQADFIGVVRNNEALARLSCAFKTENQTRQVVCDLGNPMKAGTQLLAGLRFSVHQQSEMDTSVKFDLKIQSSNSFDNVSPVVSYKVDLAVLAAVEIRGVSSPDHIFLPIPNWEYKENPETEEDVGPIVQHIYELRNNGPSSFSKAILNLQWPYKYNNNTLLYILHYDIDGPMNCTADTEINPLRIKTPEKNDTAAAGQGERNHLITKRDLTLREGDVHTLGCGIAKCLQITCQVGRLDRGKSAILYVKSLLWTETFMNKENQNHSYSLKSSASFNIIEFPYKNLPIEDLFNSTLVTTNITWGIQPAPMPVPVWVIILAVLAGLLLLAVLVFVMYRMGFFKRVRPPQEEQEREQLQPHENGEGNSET

B1: sc 188 (antibody, V domains shown)
VH: QVQLQESGPGLVKPSQTLSLTCTVSGGSISSGVYYWTWIRQHPGNGLEWIGYIYYSGSTSYNPSLKSRVTISVDTSKKQFSLNLTSVTAADTAVYYCAREGPLRGDYYYGLDVWGQGTTVTVSS
VL: EIVLTQSPGTLSLSPGERATLSCRAGQTISSRYLAWYQQKPGQAPRPLIYGASSRATGIPDRFSGSGSGTDFTLTISRLEPEDFAVYYCQQYGSSPRTFGQGTKVEIK
Consider B1, for which, in assay [1], the “IC50, n = 1 (HT29 adhesion to TGFβLAP)” value came out at 0.125 µg/mL; the “IC50, n = 2 (HT29 adhesion to TGFβLAP)” value worked out at 0.157 µg/mL; the “IC50, n = 3 (HT29 adhesion to TGFβLAP)” value worked out at 0.064 µg/mL. For the same molecule, in assay [2], the “Assay 1 % Inhibition (HT29 adhesion to TGFβLAP)” value is 99%, the “Assay 2 % Inhibition (HT29 adhesion to TGFβLAP)” value turned out to be 103% and the “Average % Inhibition (HT29 adhesion to TGFβLAP)” value was 101%. The molecule also came in with an equilibrium dissociation constant (Kd) in assay [3] of 0.0519 nM. The same molecule had a Kd in assay [4] of 21.2 nM. Also, in [5], the “Estimated IC50, n = 1 (HT29 adhesion to TGFβLAP)” value is 0.041 µg/mL and the “Estimated IC50, n = 2 (HT29 adhesion to TGFβLAP)” value is 0.026 µg/mL. Besides, the GeoMean in [6] worked out at 23.9. Moreover, the “Percent Inhibition (K562 adhesion to FN9-10 peptide of fibronectin, 5 µg/ml)” value in [7] is 5%. Further, the “% Inhibition (K562 adhesion to fibronectin)” value in assay [8] was -5%. Also, the “Percent Inhibition (J6.77 adhesion to CS-1 peptide of fibronectin, 5 ug/ml)” value in [9] is -10%. Further, in [10], the “FMAT Count” value came to 127, the “FMAT FL1” value was determined as 628 and the “FMAT FL1 × Count” value worked out at 79800. Also, in assay [11], the “Percent Inhibition (J6.77 adhesion to CS-1 peptide of fibronectin, 5 ug/ml)” value was found to be 2%.

B2: sc 188 SDM (antibody, V domains shown)
VH: B1 VH with N83K
VL: B1 VL
notes: Variable domains only
On to B2, for which the “IC50, n = 1 (HT29 adhesion to TGFβLAP)” value in assay [1] was 0.022 µg/mL. For the same molecule, in assay [1], the “IC50, n = 2 (HT29 adhesion to TGFβLAP)” value came out at 0.024 µg/mL. Also, the “IC50, n = 3 (HT29 adhesion to TGFβLAP)” value in assay [1] came out at 0.067 µg/mL. Further, the “Geometric Mean Shift” value came to 4530 in [12], 6820 in assay [13] and 6760 in assay [14]. Moreover, the “% Inhibition (K562 adhesion to fibronectin)” value in [8] is -8%. In addition, the “Percent Inhibition (J6.77 adhesion to CS-1 peptide of fibronectin, 5 ug/ml)” value in assay [11] is -6%.

B3: sc 133 (antibody, V domains shown)
VH: QVQLVQSGAEVKKPGASVKVSCKASGYTFTGYYMHWVRQAPGQGLEWMGWINPKSGDTNYAQKFQGRVTLTRDTSTSTAYMELSRLRSDDTAVYYCARRLDVWGQGTTVTVSS
VL: QSVLTQPPSVSAAPGQKVTISCSGSSSNIGNNYVSWYQQLPGTAPKLLIYDNNKRPSGIPDRFSGSKSGTSATLGITGLQTGDEADYYCGTWNSSLSAGYVFGTGTKVTV
As to B3, the “percent of cells shifted” value in assay [15] is 4%. For the same molecule, the “Percent Inhibition (K562 adhesion to FN9-10 peptide of fibronectin, 5 µg/ml)” value in assay [7] was -12%. In assay [16], the “% Cells Shifted” value amounted to 24% and the GeoMean came out at 1.79. For the same molecule, in assay [9], the “Percent Inhibition (J6.77 adhesion to CS-1 peptide of fibronectin, 5 ug/ml)” value was -15%. The “Percent Inhibition (A375M adhesion to osteopontin peptide, 5 µg/ml)” value in assay [17] amounted to 3%.

For orientation: Kd means the concentration at which binding is half-saturated. A lower Kd goes with higher affinity.
